Measured values as given in patent publication US11472877 (Alector, dated 2022).

T1: human TREM2 on BWZ cells (human, UniProt Q9NZC2 19-230)
T1 construct: whole, on cells; not tied to the cell line; also called BWZ Human TREM2
T1 sequence (looked up): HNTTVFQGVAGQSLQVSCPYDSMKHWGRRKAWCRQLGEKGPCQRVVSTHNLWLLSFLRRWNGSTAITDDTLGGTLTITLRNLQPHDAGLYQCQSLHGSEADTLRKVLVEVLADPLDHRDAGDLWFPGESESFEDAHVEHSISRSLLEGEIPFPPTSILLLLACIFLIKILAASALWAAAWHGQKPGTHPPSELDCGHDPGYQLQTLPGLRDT

T2: mouse TREM2 on BWZ cells (mouse, UniProt Q99NH8 19-227)
T2 construct: whole, on cells; also called BWZ Mouse TREM2
T2 sequence (looked up): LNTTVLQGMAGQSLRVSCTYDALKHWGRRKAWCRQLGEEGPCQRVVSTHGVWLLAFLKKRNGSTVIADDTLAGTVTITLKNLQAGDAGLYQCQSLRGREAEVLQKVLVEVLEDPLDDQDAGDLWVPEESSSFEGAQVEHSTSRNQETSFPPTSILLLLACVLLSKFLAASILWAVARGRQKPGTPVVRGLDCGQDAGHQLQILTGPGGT


Key:
[1] = biological target: T1, human TREM2 on BWZ cells; test: FACS, BWZ cells
[2] = biological target: T2, mouse TREM2 on BWZ cells; test: FACS, BWZ cells

binding result [1] | binding result [2] | Binder
no binding | no binding | T1-77 (antibody, IgG1, V domains shown, huIgG1; also called TI-77; ADI-19154) VH: QVQLQESGPGLVKPSETLSLTCAVSGYSISSGYYWAWIRQPPGKGLEWIGSIYHSGSTYYNPSLKSRVTISVDTSKNQFSLKLSSVTAADTAVYYCARGGPYPWSGWFDPWGQGTLVTVSS VL: EIVMTQSPATLSVSPGERATLSCRASQSVGSNLAWYQQKPGQAPRLLIYGASTRATGIPARFSGSGSGTEFTLTISSLQSEDFAVYYCQQHDVWPYTFGGGTKVEIK
no binding | no binding | T1-4 (antibody, IgG1, V domains shown, huIgG1; also called TI-4; ADI-19070) VH: QVQLVQSGAEVKKPGSSVKVSCKASGGTFSSYAISWVRQAPGQGLEWMGGIIPIFGTANYAQKFQGRVTITADESTSTAYMELSSLRSEDTAVYYCARHYYYGYAYFDLWGRGTLVTVSS VL: EIVMTQSPATLSVSPGERATLSCRASQSVSSNLAWYQQKPGQAPRLLIYGASTRATGIPARFSGSGSGTEFTLTISSLQSEDFAVYYCQQFNNHPITFGGGTKVEIK
no binding | no binding | T1-78 (antibody, IgG1, V domains shown, huIgG1; also called TI-78; ADI-19155) VH: QLQLQESGPGLVKPSETLSLTCTVSGGSISSSSYYWGWIRQPPGKGLEWIGSIYYSGSTYYNPSLKSRVTISVDTSKNQFSLKLSSVTAADTAVYYCARDLGQYEGYFDLWGRGTLVTVSS VL: not shown
no binding | no binding | T1-79 (antibody, IgG1, V domains shown, huIgG1; also called TI-79; ADI-19156) VH: QLQLQESGPGLVKPSETLSLTCTVSGGSISSSSYYWGWIRQPPGKGLEWIGSIYYSGSTYYNPSLKSRVTISVDTSKNQFSLKLSSVTAADTAVYYCARLGDGYRIWADYWGQGTLVTVSS VL: not shown
no binding | no binding | T1-5 (antibody, IgG1, V domains shown, huIgG1; also called TI-5; ADI-19071) VH: QVQLVQSGAEVKKPGASVKVSCKASGYTFTSYYMHWVRQAPGQGLEWMGVINPSGGSTSYAQKFQGRVTMTRDTSTSTVYMELSSLRSEDTAVYYCARESDGIDSYFDYWGQGTLVTVSS VL: not shown
no binding | no binding | T1-76 (antibody, IgG1, V domains shown, huIgG1; also called TI-76; ADI-19153) VH: not shown VL: DIQMTQSPSTLSASVGDRVTITCRASQSISSWLAWYQQKPGKAPKLLIYDASSLESGVPSRFSGSGSGTEFTLTISSLQPDDFATYYCQQHSTYSWTFGGGTKVEIK
no binding | no binding | T1-7 (antibody, IgG1, V domains shown, huIgG1; also called TI-7; ADI-19073) VH: QVQLVQSGAEVKKPGASVKVSCKASGYTFTSYYMHWVRQAPGQGLEWMGIINPSGGSTSYAQKFQGRVTMTRDTSTSTVYMELSSLRSEDTAVYYCARGLIYGDAFDYWGQGTLVTVSS VL: not shown
no binding | no binding | T1-1 (antibody, IgG1, V domains shown, huIgG1; also called TI-1; ADI-19067) VH: QVQLVQSGAEVKKPGSSVKVSCKASGGTFSSYAISWVRQAPGQGLEWMGGIIPIFGTANYAQKFQGRVTITADESTSTAYMELSSLRSEDTAVYYCARGQGSDHYYYGMDVWGQGTTVTVSS VL: not shown
no binding | no binding | T1-75 (antibody, IgG1, V domains shown, huIgG1; also called TI-75; ADI-19152) VH: QVQLVESGGGLVQPGRSLRLSCAASGFTFDDYAMHWVRQAPGKGLEWVSGISWNSGDIGYADSVKGRFTISRDNAKNSLYLQMNSLRAEDTALYYCAKAPRTRWTYFDYWGQGTLVTVSS VL: EIVLTQSPATLSLSPGERATLSCRASQSVSSYLAWYQQKPGQAPRLLIYDASNRATGIPARFSGSGSGTDFTLTISSLEPEDFAVYYCQHYNLWRTFGGGTKVEIK
no binding | no binding | T1-2 (antibody, IgG1, V domains shown, huIgG1; also called TI-2; ADI-19068) VH: QVQLVQSGAEVKKPGSSVKVSCKASGGTFSSYAISWVRQAPGQGLEWMGGIIPIFGTANYAQKFQGRVTITADESTSTAYMELSSLRSEDTAVYYCAREGGPRGASFNWFDPWGQGTLVTVSS VL: EIVLTQSPGTLSLSPGERATLSCRASQSVSSSYLAWYQQKPGQAPRLLIYGASSRATGIPDRFSGSGSGTDFTLTISRLEPEDFAVYYCQQYLGFPPTFGGGTKVEIK
